Assay results taken from publication PMC9345960, “ERK1/2 inhibits Cullin 3/SPOP-mediated PrLZ ubiquitination and degradation to modulate prostate cancer progression” (Cell Death and Differentiation, 2022).

Molecular target: T1, HA-SPOP, wild type (UniProt O43791 1-374)
T1 construct: SPOP (Speckle-type POZ protein); also called HA-SPOP WT; pcDNA3-HA-SPOP; source: 293T, transfected, in lysate; also purified from transfected 293T cells using HA-tag beads
Experiment: pull-down; GST pull-down: purified GST-PrLZ and HA-SPOP or His-SPOP incubated 3 h at 4 °C, washed with RIPA buffer, western blot (Fig. 2c: antibody against His)
Conditions: both partners purified

T1 sequence (O43791 whole entry): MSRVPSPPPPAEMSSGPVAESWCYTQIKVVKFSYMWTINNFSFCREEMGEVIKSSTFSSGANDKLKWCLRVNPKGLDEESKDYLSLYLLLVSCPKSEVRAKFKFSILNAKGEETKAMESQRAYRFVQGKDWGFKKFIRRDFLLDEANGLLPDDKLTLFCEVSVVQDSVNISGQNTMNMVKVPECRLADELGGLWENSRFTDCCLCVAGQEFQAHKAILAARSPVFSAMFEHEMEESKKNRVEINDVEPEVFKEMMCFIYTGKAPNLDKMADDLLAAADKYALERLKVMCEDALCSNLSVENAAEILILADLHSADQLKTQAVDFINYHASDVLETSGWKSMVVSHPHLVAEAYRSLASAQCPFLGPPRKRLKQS

binding result: binds
B1: GST-PrLZ, wild type (bacterial) (natural protein, UniProt P55327 1-224, looked up)
chain: MDCREMDLYEDYQSPFDFDAGVNKSYLYLSPSGNSSPPGSPTLQKFGLLRTDPVPEEGEDVAATISATETLSEEEQEELRRELAKVEEEIQTLSQVLAAKEKHLAEIKRKLGINSLQELKQNIAKGWQDVTATSAYKKTSETLSQAGQKASAAFSSVGSVITKKLEDVKNSPTFKSFEEKVENLKSKVGGTKPAGGDFGEVLNSAANASATTTEPLPEKTQESL
notes: Prostate Leucine Zipper (PrLZ); also called GST-PrLZ WT; pGEX-4T-1-GST-PrLZ; source: E. coli BL21, purified (Glutathione Sepharose 4B)
